Laboratory results published in paper PMC3544922.
Values joined by “and” are separate entries in the source; they are usually repeats but may differ in a detail not shown here. Identical values can stand only once.

Molecular target: recombinant HIV-1 integrase (HIV-1)
Assay: atomic force microscopy; 50 ng integrase incubated with 10 ng target DNA xkyk in binding buffer with MnCl2 at 30°C, dialysed against PBS 48 h at 4°C, digested with ScaI, adsorbed on mica with spermidine, tapping mode in air; size and volume of integrase bound on DNA (n = 123)

recombinant HIV-1 integrase (enzyme)
stoichiometry N: 2 and 4
